The target in assay [1] is recombinant fragment human surfactant protein D (human). The assay can be described thus: SEC; Superdex 200, 1.5 mg ml^-1, 20 mM Tris, 150 mM NaCl, 1 mM EDTA, pH 8.
The target is the same in assay [2]. Kind of assay: native MS; ESI-MS of SEC separated protein in 100 mM ammonium acetate, pH 7.5.
Assay [3] concerns the target wild-type N-terminal domain (NT) of Euprosthenops australis major ampullate spidroin protein (MaSp) 1 (Euprosthenops australis). Kind of assay: SEC; Superdex 75, 2 mg ml^-1, 20 mM MES, 150 mM NaCl, 1 mM EDTA, pH 5.5, room temperature; monomer to dimer.
For assay [4], the target named is constitutive dimer mutant NT_(E79QE84QE119Q) of the E. australis MaSp1 N-terminal domain (Euprosthenops australis). The assay is described as above.
For assay [5] the target is unchanged. Kind of assay: SEC; Superdex 75, 2 mg ml^-1, 20 mM Tris, 150 mM NaCl, 1 mM EDTA, pH 8, room temperature; monomer to dimer.

This note sets out measurements from paper PMC5457526.

For the substance “recombinant fragment human surfactant protein D (domain or fragment)”, the stoichiometry N in assay [1] and in assay [2] was 3 throughout.

Substance “wild-type N-terminal domain (NT) of Euprosthenops australis major ampullate spidroin protein (MaSp) 1 (domain or fragment)” gave a stoichiometry N in assay [3] of 2.

With “constitutive dimer mutant NT_(E79QE84QE119Q) of the E. australis MaSp1 N-terminal domain (domain or fragment)”, the stoichiometry N in assay [4] and in assay [5] was 2 throughout.
